Columns and labels:
[1] = Detection of test substance in rat plasma by LC-MS/MS (Test Example 3); type: in vivo; conditions: rat plasma, 100 nmol/kg i.v., LC-MS/MS; time at which the test substance was finally detected
Outline: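 Jugular blood drawn before and 15–240 min after dosing; plasma spiked with stable-isotope hANP internal standard and AcOH/water/DMSO solvent, then passed through a 50K filter with the 3K-retained fraction analysed by LC-MS/MS. Value is the last time point at which test substance was detected.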

[2] = biological target: T1, human GC-A (Homo sapiens, UniProt P16066); assay: cGMP elevating activity in CHO/human GC-A cells (Test Example 1); type: cell-based
T1 construct: expressed in transfected cells; host or cells: CHO cells
T1 sequence (P16066 33-1061): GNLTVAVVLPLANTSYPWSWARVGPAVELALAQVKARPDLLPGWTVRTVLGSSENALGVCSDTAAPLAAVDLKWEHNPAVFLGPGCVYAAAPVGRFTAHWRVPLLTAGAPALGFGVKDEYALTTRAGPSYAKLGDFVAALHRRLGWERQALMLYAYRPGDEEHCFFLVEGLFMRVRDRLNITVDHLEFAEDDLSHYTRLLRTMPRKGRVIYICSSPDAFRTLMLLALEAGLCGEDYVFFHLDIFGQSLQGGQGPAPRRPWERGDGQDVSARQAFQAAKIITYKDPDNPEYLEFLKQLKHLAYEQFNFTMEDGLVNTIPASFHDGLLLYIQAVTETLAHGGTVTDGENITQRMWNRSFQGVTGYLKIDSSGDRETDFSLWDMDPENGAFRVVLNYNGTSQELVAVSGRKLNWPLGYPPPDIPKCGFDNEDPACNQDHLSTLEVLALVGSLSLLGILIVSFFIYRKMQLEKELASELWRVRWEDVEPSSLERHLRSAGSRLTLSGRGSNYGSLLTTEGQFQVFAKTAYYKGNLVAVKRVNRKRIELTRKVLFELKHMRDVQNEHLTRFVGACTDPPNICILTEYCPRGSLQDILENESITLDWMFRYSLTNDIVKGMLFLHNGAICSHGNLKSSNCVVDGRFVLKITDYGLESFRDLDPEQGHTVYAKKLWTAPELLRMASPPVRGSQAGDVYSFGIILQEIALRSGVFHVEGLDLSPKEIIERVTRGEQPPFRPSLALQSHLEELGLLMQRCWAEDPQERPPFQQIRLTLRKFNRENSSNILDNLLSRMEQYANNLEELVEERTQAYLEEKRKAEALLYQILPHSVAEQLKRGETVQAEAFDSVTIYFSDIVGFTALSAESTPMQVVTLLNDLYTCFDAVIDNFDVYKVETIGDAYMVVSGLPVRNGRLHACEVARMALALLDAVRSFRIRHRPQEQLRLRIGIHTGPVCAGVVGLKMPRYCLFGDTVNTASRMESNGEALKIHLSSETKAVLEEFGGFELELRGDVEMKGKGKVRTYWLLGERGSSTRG
Outline: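 CHO cells stably expressing human GC-A, pre-incubated 10 min at room temperature in 1.6 mM IBMX/KRB, then exposed to test peptide 15 min in CO2 incubator. Lysate cGMP measured by HTRF. Activity (T/C) scaled so solvent-only = 0 and 1 nM ANP = 1.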

CC[C@H](C)[C@@H]1NC(=O)[C@H](CCCNC(=N)N)NC(=O)[C@H](CC(=O)O)NC(=O)[C@H](CCSC)NC(=O)[C@H](CCCNC(=N)N)NC(=O)CNC(=O)CNC(=O)[C@H](Cc2ccccc2)NC(=O)[C@@H](NC(=O)[C@H](CO)NC(=O)[C@H](CO)NC(=O)[C@H](CCCNC(=N)N)NC(=O)[C@H](CCCNC(=N)N)NC(=O)[C@H](CC(C)C)NC(=O)[C@H](CO)NC(=O)CCOCCOCCOCCOCCOCCOCCOCCOCCOCCOCCOCCOCCNC(=O)[C@H](CC(=O)N[C@@H]2O[C@H](CO)[C@@H](O[C@@H]3O[C@H](CO)[C@@H](O[C@@H]4O[C@H](CO[C@H]5O[C@H](CO)[C@@H](O)[C@H](O)[C@@H]5O[C@@H]5O[C@H](CO)[C@@H](O[C@@H]6O[C@H](CO[C@]7(C(=O)O)C[C@H](O)[C@@H](NC(C)=O)[C@H]([C@H](O)[C@H](O)CO)O7)[C@H](O)[C@H](O)[C@H]6O)[C@H](O)[C@H]5NC(C)=O)[C@@H](O)[C@H](O[C@H]5O[C@H](CO)[C@@H](O)[C@H](O)[C@@H]5O[C@@H]5O[C@H](CO)[C@@H](O[C@@H]6O[C@H](CO[C@]7(C(=O)O)C[C@H](O)[C@@H](NC(C)=O)[C@H]([C@H](O)[C@H](O)CO)O7)[C@H](O)[C@H](O)[C@H]6O)[C@H](O)[C@H]5NC(C)=O)[C@@H]4O)[C@H](O)[C@H]3NC(C)=O)[C@H](O)[C@H]2NC(C)=O)NC(=O)CO[C@@H]2O[C@H](CO)[C@@H](O[C@@H]3O[C@H](CO)[C@@H](O[C@@H]4O[C@H](CO[C@H]5O[C@H](CO)[C@@H](O)[C@H](O)[C@@H]5O[C@@H]5O[C@H](CO)[C@@H](O[C@@H]6O[C@H](CO[C@]7(C(=O)O)C[C@H](O)[C@@H](NC(C)=O)[C@H]([C@H](O)[C@H](O)CO)O7)[C@H](O)[C@H](O)[C@H]6O)[C@H](O)[C@H]5NC(C)=O)[C@@H](O)[C@H](O[C@H]5O[C@H](CO)[C@@H](O)[C@H](O)[C@@H]5O[C@@H]5O[C@H](CO)[C@@H](O[C@@H]6O[C@H](CO[C@]7(C(=O)O)C[C@H](O)[C@@H](NC(C)=O)[C@H]([C@H](O)[C@H](O)CO)O7)[C@H](O)[C@H](O)[C@H]6O)[C@H](O)[C@H]5NC(C)=O)[C@@H]4O)[C@H](O)[C@H]3NC(C)=O)[C@H](O)[C@H]2NC(C)=O)CSSC[C@@H](C(=O)N[C@@H](CC(N)=O)C(=O)N[C@@H](CO)C(=O)N[C@@H](Cc2ccccc2)C(=O)N[C@@H](CCCNC(=N)N)C(=O)N[C@@H](Cc2ccc(O)cc2)C(=O)O)NC(=O)CNC(=O)[C@H](CC(C)C)NC(=O)CNC(=O)[C@H](CO)NC(=O)[C@H](CCC(N)=O)NC(=O)[C@H](C)NC(=O)CNC1=O [Compound 2-27, SG-(SG-)Asn-PEG(11)-hANP(1-28)]
Maximum time of detection after administration [1]: 2 h
EC50 [2]: 0.26 nM

Reference: patent US10947289B2, “Glyco-modified atrial natriuretic peptide” (priority 2013, dated 2021)
